We go through four molecules from publication PMC7319042 (Structure (London, England : 1993), 2018).

Data set [1] concerns the target Rev (Human immunodeficiency virus 1) (UniProt P04325). The settings on record: cited from earlier work.
A further data set concerns the target Rev116 (HIV-1, UniProt P04616 1-116). Briefly: analytical ultracentrifugation.
Data set [2] deals with HIV-1 Rev^116 (full-length wild-type Rev) (HIV-1, UniProt P04618). The data set is described as follows: light scattering at 320 nm of the.
Data set [3] addresses HIV-1 Rev^93 (C-terminally truncated Rev, amino acids 1-93) (HIV-1, UniProt P04618). Briefly: crystal structure.
In data set [4] the target is T1, HIV-1 Rev^116 (full-length wild-type Rev) (HIV-1), P04618.
T1 chain: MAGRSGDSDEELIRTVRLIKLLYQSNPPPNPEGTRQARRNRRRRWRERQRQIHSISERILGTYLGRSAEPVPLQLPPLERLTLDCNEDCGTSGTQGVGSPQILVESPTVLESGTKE
Briefly: AUC. The settings on record: remark: other sources report otherwise.

The target of data set [5] is T1, HIV-1 Rev^116 (full-length wild-type …). The data set is described as follows: light scattering at 320 nm of thermally induced assembly. The settings on record: remark: other sources report otherwise.

Usually Kd stands for the equilibrium constant for the complex coming apart. In the case of Rev (from UniProt P04325), the Kd in data set [1] was 1000 nM.

B1: RBA-14 (structured_RNA)
RNA: GGCUGGACUCGUACUUCGGUACUGGAGAAACAGCC
B1: the binding result with Rev116 was “binds”.

B2: chimeric rabbit/human scFv SJS-R1 (anti-Rev single-chain variable fragment) (scFv, V domains shown)
VH: QEQLVESGGRLVTPGTALTLTCKVSGFSLSGFWLNWVRQAPGKGLEWVGAIYRGSGSEWYASWAKGRFTISDTSTTVTLKLTSPTTEDTATYFCAADTTDNGYFTIWGPGTLVTVSS
VL: ELVMTQTPSSVSEPVGGTVTIKCQASQSISSWLSWYQQKPGQPPKLLIYDASNLASGVPSRFMGSGSGTEYTLTISGVQREDAATYYCLGGYPAASYRTAFGGGTELEII
With B2, the binding result in data set [2] and in data set [3] was “binds” in each case.

B3: HIV-1 Rev^116 (full-length wild-type Rev), P04618 1-116 (natural protein)
chain: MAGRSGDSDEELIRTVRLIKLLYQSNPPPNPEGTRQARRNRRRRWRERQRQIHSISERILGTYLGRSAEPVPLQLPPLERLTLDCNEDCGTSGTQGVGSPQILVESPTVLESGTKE
For orientation: stoichiometry N means a count of units in the complex or per binding partner. With B3, the stoichiometry N in data set [4] is 4. The molecule further showed a critical concentration (Cr) of polymer formation in data set [5] of 11 µM.
